Consider 1 molecule from patent publication US20210008108A1 (ETABLISSEMENT FRANCAIS DU SANG, published 2021).

The target in the assay is T1, recombinant fusion protein consisting of the extra cellular part of IL-1RAP and the Fc-part of human IgG1 … (human, UniProt Q9NPH3 21-367).
T1 construct: extracellular domain; also called IL-1RAP recombinant protein; recombinant IL-1RAP protein; not shown: Fc-part of human IgG1
T1 sequence (looked up): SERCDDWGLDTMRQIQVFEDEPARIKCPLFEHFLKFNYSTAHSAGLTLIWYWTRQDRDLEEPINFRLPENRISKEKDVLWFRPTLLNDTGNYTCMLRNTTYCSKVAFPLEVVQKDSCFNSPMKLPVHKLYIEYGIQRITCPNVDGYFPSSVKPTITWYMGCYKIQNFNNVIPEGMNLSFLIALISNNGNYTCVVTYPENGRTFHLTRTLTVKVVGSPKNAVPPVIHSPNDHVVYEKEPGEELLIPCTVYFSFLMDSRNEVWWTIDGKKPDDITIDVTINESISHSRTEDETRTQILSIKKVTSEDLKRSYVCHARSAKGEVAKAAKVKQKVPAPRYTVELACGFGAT
As to the kind of experiment: ELISA, IL-1RAP protein captured by coated anti-human Fc, detected with anti-mouse Fc-HRP. The source says:
Anti-human Fc antibody was coated on a bottom of a plastic ELISA plate.

B1: mouse anti-hIL-1RAP monoclonal antibody clone #E3C3 (antibody, V domains shown)
VH: QVQLQQPGAELMMPGASVKVSCEASGYTFTDSWMHWVKQRPGQGLEWIGAIDPSDSYTTYNQKFTGKATLSVDESSNTAYMQLSSLTSEDSAVYYCARYYSGSNYISPFPYWGQGTLVTVSA
VL: DIVMTQSHKFMSTSVGDRVTITCKASLDVSTAVAWYQQKPGQSPKLLIYSASYRYTGVPDRFTGSGSGTDFTFTISSVQAEDLAVYYCQQHYSPPFTFGSGTNLEIK
notes: Murine hybridoma antibody; It was Alexa Fluor 488 labelled in some flow cytometry; also called #A3C3; #E3C3 mAb
For B1, the binding result is “binds”.
